Measurements as given in patent US20170306033A1 (Amgen, published 2017).

B1: iPS:327694 (bispecific antibody, human IgG1, kappa, lambda, N297G)
light 1: DIQMTQSPSSLSASVGDRITITCRASQSISRYLNWYQQKPGKAPKLLIYAASSLQSGIPSRFSGSGSGTDFTLTINSLQPEDFATYFCQQSYSPPFTFGEGTKVDIKRTVAAPSVFIFPPSDEQLKSGTASVVCLLNNFYPREAKVQWKVDNALQSGNSQESVTEQDSKDSTYSLESTLTLSKADYEKHKVYACEVTHQGLSSPVTKSFNRGEC
heavy 1: not shown
light 2: QSVLTQPPSVSAAPGQKVTISCSGSSSNIGNNYVSWYQQLPGTAPKLLIYDNNKRPSGIPDRFSGSKSGTSTTLGITGLQTGDEADYYCGTWDSRLSAVVFGKGTKLTVLGQPKANPTVTLFPPSSEELQANKATLVCLISDFYPGAVTVAWKADGSPVKAGVETTKPSKQSNNKYAAKSYLSLTPEQWKSHRSYSCQVTHEGSTVEKTVAPTECS
heavy 2: QVQLVESGGGVVQPGRSLRLSCAASGFTFSSFGMHWVRQAPGKELEWVAVISFDGSIKYSVDSVKGRFTISRDNSKNTLFLQMNSLRAEDTAVYYCARDRLNYYESSGYYHYKYYGMAVWGQGTTVTVSSASTKGPSVFPLAPSSKSTSGGTAALGCLVKDYFPEPVTVSWNSGALTSGVHTFPAVLQSSGLYSLESVVTVPSSSLGTQTYICNVNHKPSNTKVDKKVEPKSCDKTHTCPPCPAPELLGGPSVFLFPPKPKDTLMISRTPEVTCVVVDVSHEDPEVKFNWYVDGVEVHNAKTKPCEEQYGSTYRCVSVLTVLHQDWLNGKEYKCKVSNKALPAPIEKTISKAKGQPREPQVYTLPPSRKEMTKNQVSLTCLVKGFYPSDIAVEWESNGQPENNYKTTPPVLKSDGSFFLYSKLTVDKSRWQQGNVFSCSVMHEALHNHYTQKSLSLSPGK
B2: iPS:327688 (bispecific antibody, human IgG1, kappa, N297G)
light 1: EIVLTQSPATLSLSPGERATLSCRASQSVGRSLHWYQQKPGQAPRLLIKYASQSLSGIPARFSGSGSGTDFTLTISSLEPEDFAVYYCHQSSRLPFTFGPGTKVDIKRTVAAPSVFIFPPSDEQLKSGTASVVCLLNNFYPREAKVQWKVDNALQSGNSQESVTEQDSKDSTYSLESTLTLSKADYEKHKVYACEVTHQGLSSPVTKSFNRGEC
heavy 1: not shown
light 2: EIVLTQSPGTLSLSPGERATLSCRASQSVSSGYLTWYQQKPGQAPRLLIYGASSRATGIPDRFSGSGSGTDFTLTISRLEPEDFAVYYCQQYGNSLSRFGQGTKLEIKRTVAAPSVFIFPPSDEQLKSGTASVVCLLNNFYPREAKVQWKVDNALQSGNSQESVTEQDSKDSTYSLKSTLTLSKADYEKHKVYACEVTHQGLSSPVTKSFNRGEC
heavy 2: not shown
B3: iPS:327693 (bispecific antibody, human IgG1, kappa, lambda, N297G)
light 1: EIVLTQSPATLSLSPGERATLSCRASQSVGRSLHWYQQKPGQAPRLLIKYASQSLSGIPARFSGSGSGTDFTLTISSLEPEDFAVYYCHQSSRLPFTFGPGTKVDIKRTVAAPSVFIFPPSDEQLKSGTASVVCLLNNFYPREAKVQWKVDNALQSGNSQESVTEQDSKDSTYSLESTLTLSKADYEKHKVYACEVTHQGLSSPVTKSFNRGEC
heavy 1: not shown
light 2: QSVLTQPPSVSAAPGQKVTISCSGSSSNIGNNYVSWYQQLPGTAPKLLIYDNNKRPSGIPDRFSGSKSGTSTTLGITGLQTGDEADYYCGTWDSRLSAVVFGGGTKLTVLGQPKANPTVTLFPPSSEELQANKATLVCLISDFYPGAVTVAWKADGSPVKAGVETTKPSKQSNNKYAAKSYLSLTPEQWKSHRSYSCQVTHEGSTVEKTVAPTECS
heavy 2: QVQLVESGGGVVQPGRSLRLSCAASGFTFSSFGMHWVRQAPGKGLEWVAVISFDGSIKYSVDSVKGRFTISRDNSKNTLFLQMNSLRAEDTAVYYCARDRLNYYESSGYYHYKYYGMAVWGQGTTVTVSSASTKGPSVFPLAPSSKSTSGGTAALGCLVKDYFPEPVTVSWNSGALTSGVHTFPAVLQSSGLYSLESVVTVPSSSLGTQTYICNVNHKPSNTKVDKKVEPKSCDKTHTCPPCPAPELLGGPSVFLFPPKPKDTLMISRTPEVTCVVVDVSHEDPEVKFNWYVDGVEVHNAKTKPCEEQYGSTYRCVSVLTVLHQDWLNGKEYKCKVSNKALPAPIEKTISKAKGQPREPQVYTLPPSRKEMTKNQVSLTCLVKGFYPSDIAVEWESNGQPENNYKTTPPVLKSDGSFFLYSKLTVDKSRWQQGNVFSCSVMHEALHNHYTQKSLSLSPGK

How the values were obtained:
human PAC1 receptor = target: T1, human PAC1 receptor (human, UniProt P41586 21-468); experiment: cell-based or functional assay
T1 sequence: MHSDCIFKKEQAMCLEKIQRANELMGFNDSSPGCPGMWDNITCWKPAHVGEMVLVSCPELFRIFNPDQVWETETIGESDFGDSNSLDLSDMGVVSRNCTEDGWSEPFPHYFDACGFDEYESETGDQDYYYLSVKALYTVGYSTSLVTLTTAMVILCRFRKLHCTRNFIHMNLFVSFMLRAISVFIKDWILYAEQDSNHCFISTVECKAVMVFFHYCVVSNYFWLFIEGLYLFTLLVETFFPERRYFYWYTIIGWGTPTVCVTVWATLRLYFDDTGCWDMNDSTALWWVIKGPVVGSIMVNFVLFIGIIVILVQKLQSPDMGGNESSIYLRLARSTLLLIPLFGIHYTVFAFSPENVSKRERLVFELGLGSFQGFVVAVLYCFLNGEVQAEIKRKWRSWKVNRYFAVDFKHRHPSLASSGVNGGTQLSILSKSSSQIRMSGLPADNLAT

human CGRP receptor = human CGRP receptor (human, UniProt Q16602 23-461; O60894 27-148); experiment: cell-based or functional assay
human CGRP receptor, sequence (Q16602 23-461 limits assumed, chain 1 of 2): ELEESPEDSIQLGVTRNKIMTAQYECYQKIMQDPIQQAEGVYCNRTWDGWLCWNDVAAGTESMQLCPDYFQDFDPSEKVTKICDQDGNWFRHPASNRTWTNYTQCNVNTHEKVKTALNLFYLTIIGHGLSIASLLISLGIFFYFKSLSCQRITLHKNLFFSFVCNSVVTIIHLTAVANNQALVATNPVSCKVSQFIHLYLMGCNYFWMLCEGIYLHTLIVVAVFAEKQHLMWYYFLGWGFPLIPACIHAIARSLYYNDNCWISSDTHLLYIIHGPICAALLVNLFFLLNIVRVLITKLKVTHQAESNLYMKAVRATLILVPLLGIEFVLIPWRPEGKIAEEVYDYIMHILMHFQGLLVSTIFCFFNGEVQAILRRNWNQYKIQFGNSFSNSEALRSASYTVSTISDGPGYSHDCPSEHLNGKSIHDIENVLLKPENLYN
human CGRP receptor, sequence (O60894 27-148 limits assumed, chain 2 of 2): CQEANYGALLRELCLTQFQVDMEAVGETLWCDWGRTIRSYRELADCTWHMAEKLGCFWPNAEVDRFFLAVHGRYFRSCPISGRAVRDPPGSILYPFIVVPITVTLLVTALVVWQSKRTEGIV

Binder | % inhibition of human PAC1 (human PAC1 receptor) | % inhibition of human CGRPR (human CGRP receptor)
B1 | 75% | 87%
B2 | 103% | 89%
B3 | 82% | 76%
